The experiment deals with 2-azido-ATP (2-N3-ATP-biotin-long chain-hydrazone). Briefly: photoaffinity labeling with 2-azido-ATP. Conditions: 2.0 μg of full-length AsphyA protein (∼0.16 μM), wild-type labeling at 100 μM set as 100%, read off a plot.
[1] abbreviates: 10 µM 2-azido-ATP, parent: est. 40.
Where [2] appears, read: 20 µM 2-azido-ATP, parent: est. 63.
Where [3] appears, read: 50 µM 2-azido-ATP, parent: est. 74.
[4] abbreviates: 100 µM 2-azido-ATP, parent: est. 100.

Consider “Avena sativa phytochrome A, wild type, full-length recombinant protein with C-terminal strep-tag K411E”, for which the response was determined as 61% under setting [1], 75% under setting [2], 92% under setting [3] and 110% under setting [4].
For “Avena sativa phytochrome A, wild type, full-length recombinant protein with C-terminal strep-tag K411R” the same measures were 91%, 120%, 140% and 150%.
Turning to “Avena sativa phytochrome A, wild type, full-length recombinant protein with C-terminal strep-tag T418V”, the response under setting [1] is 82%, the response under setting [2] was determined as 120%, the response under setting [3] is 140% and the response under setting [4] came out at 140%.

Source of the values: publication PMC8362889.
